In US20150111251A1 (AbbVie / Abbott, published 2015):

Tests used:
[1] = biological target: T1, Recombinant Human TNF-α/TNFSF1A (human, UniProt P01375 77-233); assay: cell-based or functional assay
[2] = biological target: T1, Recombinant Human TNF-α/TNFSF1A; assay: SPR (BIACORE), antibody captured, TNFα in solution
Procedure: The BIACORE assay (Biacore, Inc, Piscataway, N.J.) determines the affinity of antibodies with kinetic measurements of on-rate and off-rate constants. Binding of antibodies to a target antigen (for example, a purified recombinant target antigen) is determined by surface plasmon resonance-based measurements with a Biacore® 1000 or 3000 instrument (Biacore® AB, Uppsala, Sweden) using running HBS-EP (10 mM HEPES [pH 7.4], 150 mM NaCl, 3 mM EDTA, and 0.005% surfactant P20) at 25° C. All chemicals are obtained from Biacore® AB (Uppsala, Sweden) or otherwise from a different source as described. For example, approximately 5000 RU of goat anti-mouse IgG, (Fcγ), fragment specific polyclonal antibody (Pierce Biotechnology Inc, Rockford, Ill.) diluted in 10 mM sodium acetate (pH 4.5) is directly immobilized across a CM5 research grade biosensor chip using a standard amine coupling kit according to manufacturer's instructions and procedures at 25 μg/ml. Unreacted moieties on the biosensor surface are blocked with ethanolamine. Modified carboxymethyl dextran surface in flowcell 2 and 4 is used as a reaction surface. Unmodified carboxymethyl dextran without goat anti-mouse IgG in flow cell 1 and 3 is used as the reference surface. For kinetic analysis, rate equations derived from the 1:1 Langmuir binding model are fitted simultaneously to association and dissociation phases of all eight injections (using global fit analysis) with the use of Biaevaluation 4.0.1 software. Purified antibodies are diluted in HEPES-buffered saline for capture across goat anti-mouse IgG specific reaction surfaces. Antibodies to be captured as a ligand (25 μg/ml) are injected over reaction matrices at a flow rate of 5 μl/minute. The association and dissociation rate constants, kₒₙ (M⁻¹ s⁻¹) and koff (s⁻¹), are determined under a continuous flow rate of 25 μl/minute. Rate constants are derived by making kinetic binding measurements at different antigen concentrations ranging from 10-200 nM. The equilibrium dissociation constant (M) of the reaction between antibodies and the target antigen is then calculated from the kinetic rate constants by the following formula: KD=koff/kₒₙ. Binding is recorded as a function of time and kinetic rate constants are calculated. In this assay, on-rates as fast as 10⁶ M⁻¹ s⁻¹ and off-rates as slow as 10⁻⁶ s⁻¹ can be measured.

T1 sequence (P01375 77-233 limits assumed): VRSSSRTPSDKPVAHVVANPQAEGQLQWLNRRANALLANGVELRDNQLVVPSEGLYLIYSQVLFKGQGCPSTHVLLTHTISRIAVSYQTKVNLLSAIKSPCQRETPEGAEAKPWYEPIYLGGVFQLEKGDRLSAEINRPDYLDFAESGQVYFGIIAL

Row | Binder | TNFα Neutralization Assay IC50 nM (L929 cells) [1] [nM] | Kd [2] [nM] | koff [2] [s⁻¹] | kon [2] [M⁻¹ s⁻¹]
1 | AB381 (antibody, V domains shown, Full-length humanized antibody made in HEK 293-6E; also called hMAK199VH.2b/hMAK199VL.1) VH: EIQLVQSGAEVKKPGASVKVSCKASGYTFTNYGMNWVRQAPGQGLEWMGWINTYTGEPTYADDFKGRVTFTTDTSTSTAYMELSSLRSEDTAVYYCARKFLTTVVVTDYAMDYWGQGTTVTVSS VL: DIQMTQSPSSLSASVGDRVTITCRASQDISNYLNWYQQKPGKAPKLLIYYTSRLQSGVPSRFSGSGSGTDFTLTISSLQPEDFATYYCQQGNTLPPTFGQGTKLEIK | 5.9 | 1.9 | 0.0017 | 860000
2 | AB382 (antibody, V domains shown, Full-length humanized antibody made in HEK 293-6E; also called hMAK199VH.2b/hMAK199VL.1a) VH: EIQLVQSGAEVKKPGASVKVSCKASGYTFTNYGMNWVRQAPGQGLEWMGWINTYTGEPTYADDFKGRVTFTTDTSTSTAYMELSSLRSEDTAVYYCARKFLTTVVVTDYAMDYWGQGTTVTVSS VL: DIQMTQSPSSLSASVGDRVTITCRASQDISNYLNWYQQKPGKTVKLLIYYTSRLQSGVPSRFSGSGSGTDYTLTISSLQPEDFATYFCQQGNTLPPTFGQGTKLEIK | 1.19 | 2 | 0.0015 | 740000
3 | AB371 (antibody, V domains shown, Full-length humanized antibody made in HEK 293-6E; also called hMAK199VH.2/hMAK199VL.1b) VH: EVQLVQSGAEVKKPGASVKVSCKASGYTFTNYGMNWVRQAPGQGLEWMGWINTYTGEPTYADDFKGRVTMTTDTSTSTAYMELSSLRSEDTAVYYCARKFLTTVVVTDYAMDYWGQGTTVTVSS VL: DIQMTQSPSSLSASVGDRVTITCRASQDISNYLNWYQQKPGKAPKLLIYYTSRLQSGVPSRFSGSGSGTDYTLTISSLQPEDFATYYCQQGNTLPPTFGQGTKLEIK | > 20 | 1.2 | 0.0017 | 1.5e+06
4 | AB367 (antibody, V domains shown, Full-length humanized antibody made in HEK 293-6E; also called hMAK199VH.1b/hMAK199VL.2a) VH: EVQLVQSGSELKKPGASVKVSCKASGYTFTNYGMNWVRQAPGQGLEWMGWINTYTGEPTYADDFKGRFVFSLDTSVSTAYLQISSLKAEDTAVYFCARKFLTTVVVTDYAMDYWGQGTTVTVSS VL: DIVMTQSPAFLSVTPGEKVTITCRASQDISNYLNWYQQKPDQTVKLLIYYTSRLQSGVPSRFSGSGSGTDYTFTISSLEAEDAATYFCQQGNTLPPTFGQGTKLEIK | 0.53 | 1 | 0.001 | 1e+06
5 | AB373 (antibody, V domains shown, Full-length humanized antibody made in HEK 293-6E; also called hMAK199VH.2/hMAK199VL.2a) VH: EVQLVQSGAEVKKPGASVKVSCKASGYTFTNYGMNWVRQAPGQGLEWMGWINTYTGEPTYADDFKGRVTMTTDTSTSTAYMELSSLRSEDTAVYYCARKFLTTVVVTDYAMDYWGQGTTVTVSS VL: DIVMTQSPAFLSVTPGEKVTITCRASQDISNYLNWYQQKPDQTVKLLIYYTSRLQSGVPSRFSGSGSGTDYTFTISSLEAEDAATYFCQQGNTLPPTFGQGTKLEIK | > 20 | 1.2 | 0.0012 | 940000
6 | AB379 (antibody, V domains shown, Full-length humanized antibody made in HEK 293-6E; also called hMAK199VH.2a/hMAK199VL.2a) VH: EIQLVQSGAEVKKPGASVKVSCKASGYTFTNYGMNWVRQAPGQGLEWMGWINTYTGEPTYADDFKGRFTFTLDTSTSTAYMELSSLRSEDTAVYFCARKFLTTVVVTDYAMDYWGQGTTVTVSS VL: DIVMTQSPAFLSVTPGEKVTITCRASQDISNYLNWYQQKPDQTVKLLIYYTSRLQSGVPSRFSGSGSGTDYTFTISSLEAEDAATYFCQQGNTLPPTFGQGTKLEIK | > 20 | 1.8 | 0.0016 | 890000
7 | AB385 (antibody, V domains shown, Full-length humanized antibody made in HEK 293-6E; also called hMAK199VH.2b/hMAK199VL.2a) VH: EIQLVQSGAEVKKPGASVKVSCKASGYTFTNYGMNWVRQAPGQGLEWMGWINTYTGEPTYADDFKGRVTFTTDTSTSTAYMELSSLRSEDTAVYYCARKFLTTVVVTDYAMDYWGQGTTVTVSS VL: DIVMTQSPAFLSVTPGEKVTITCRASQDISNYLNWYQQKPDQTVKLLIYYTSRLQSGVPSRFSGSGSGTDYTFTISSLEAEDAATYFCQQGNTLPPTFGQGTKLEIK | 9.76 | 2.2 | 0.0019 | 880000

Continued by falling Kd [2], values first:

Row | TNFα Neutralization Assay IC50 nM (L929 cells) [1] [nM] | Kd [2] [nM] | koff [2] [s⁻¹] | kon [2] [M⁻¹ s⁻¹] | Binder
8 | > 20 | 2.1 | 0.0018 | 830000 | AB383 (antibody, V domains shown, Full-length humanized antibody made in HEK 293-6E; also called hMAK199VH.2b/hMAK199VL.1b) VH: EIQLVQSGAEVKKPGASVKVSCKASGYTFTNYGMNWVRQAPGQGLEWMGWINTYTGEPTYADDFKGRVTFTTDTSTSTAYMELSSLRSEDTAVYYCARKFLTTVVVTDYAMDYWGQGTTVTVSS VL: DIQMTQSPSSLSASVGDRVTITCRASQDISNYLNWYQQKPGKAPKLLIYYTSRLQSGVPSRFSGSGSGTDYTLTISSLQPEDFATYYCQQGNTLPPTFGQGTKLEIK
9 | > 20 | 1.8 | 0.0015 | 820000 | AB380 (antibody, V domains shown, Full-length humanized antibody made in HEK 293-6E; also called hMAK199VH.2a/hMAK199VL.2b) VH: EIQLVQSGAEVKKPGASVKVSCKASGYTFTNYGMNWVRQAPGQGLEWMGWINTYTGEPTYADDFKGRFTFTLDTSTSTAYMELSSLRSEDTAVYFCARKFLTTVVVTDYAMDYWGQGTTVTVSS VL: DIVMTQSPAFLSVTPGEKVTITCRASQDISNYLNWYQQKPDQAPKLLIYYTSRLQSGVPSRFSGSGSGTDYTFTISSLEAEDAATYYCQQGNTLPPTFGQGTKLEIK
10 | 3.65 | 1.3 | 0.0014 | 1.1e+06 | AB376 (antibody, V domains shown, Full-length humanized antibody made in HEK 293-6E; also called hMAK199VH.2a/hMAK199VL.1a) VH: EIQLVQSGAEVKKPGASVKVSCKASGYTFTNYGMNWVRQAPGQGLEWMGWINTYTGEPTYADDFKGRFTFTLDTSTSTAYMELSSLRSEDTAVYFCARKFLTTVVVTDYAMDYWGQGTTVTVSS VL: DIQMTQSPSSLSASVGDRVTITCRASQDISNYLNWYQQKPGKTVKLLIYYTSRLQSGVPSRFSGSGSGTDYTLTISSLQPEDFATYFCQQGNTLPPTFGQGTKLEIK
11 | 11.4 | 1.3 | 0.0011 | 900000 | AB375 (antibody, V domains shown, Full-length humanized antibody made in HEK 293-6E; also called hMAK199VH.2a/hMAK199VL.1) VH: EIQLVQSGAEVKKPGASVKVSCKASGYTFTNYGMNWVRQAPGQGLEWMGWINTYTGEPTYADDFKGRFTFTLDTSTSTAYMELSSLRSEDTAVYFCARKFLTTVVVTDYAMDYWGQGTTVTVSS VL: DIQMTQSPSSLSASVGDRVTITCRASQDISNYLNWYQQKPGKAPKLLIYYTSRLQSGVPSRFSGSGSGTDFTLTISSLQPEDFATYYCQQGNTLPPTFGQGTKLEIK
12 | > 20 | 1.3 | 0.0015 | 1.2e+06 | AB374 (antibody, V domains shown, Full-length humanized antibody made in HEK 293-6E; also called hMAK199VH.2/hMAK199VL.2b) VH: EVQLVQSGAEVKKPGASVKVSCKASGYTFTNYGMNWVRQAPGQGLEWMGWINTYTGEPTYADDFKGRVTMTTDTSTSTAYMELSSLRSEDTAVYYCARKFLTTVVVTDYAMDYWGQGTTVTVSS VL: DIVMTQSPAFLSVTPGEKVTITCRASQDISNYLNWYQQKPDQAPKLLIYYTSRLQSGVPSRFSGSGSGTDYTFTISSLEAEDAATYYCQQGNTLPPTFGQGTKLEIK
13 | > 20 | 1.1 | 0.001 | 940000 | AB369 (antibody, V domains shown, Full-length humanized antibody made in HEK 293-6E; also called hMAK199VH.2/hMAK199VL.1) VH: EVQLVQSGAEVKKPGASVKVSCKASGYTFTNYGMNWVRQAPGQGLEWMGWINTYTGEPTYADDFKGRVTMTTDTSTSTAYMELSSLRSEDTAVYYCARKFLTTVVVTDYAMDYWGQGTTVTVSS VL: DIQMTQSPSSLSASVGDRVTITCRASQDISNYLNWYQQKPGKAPKLLIYYTSRLQSGVPSRFSGSGSGTDFTLTISSLQPEDFATYYCQQGNTLPPTFGQGTKLEIK
14 | 3.78 | 1.1 | 0.0012 | 1e+06 | AB370 (antibody, V domains shown, Full-length humanized antibody made in HEK 293-6E; also called hMAK199VH.2/hMAK199VL.1a) VH: EVQLVQSGAEVKKPGASVKVSCKASGYTFTNYGMNWVRQAPGQGLEWMGWINTYTGEPTYADDFKGRVTMTTDTSTSTAYMELSSLRSEDTAVYYCARKFLTTVVVTDYAMDYWGQGTTVTVSS VL: DIQMTQSPSSLSASVGDRVTITCRASQDISNYLNWYQQKPGKTVKLLIYYTSRLQSGVPSRFSGSGSGTDYTLTISSLQPEDFATYFCQQGNTLPPTFGQGTKLEIK
15 | 1.09 | 1 | 0.0011 | 1.1e+06 | AB368 (antibody, V domains shown, Full-length humanized antibody made in HEK 293-6E; also called hMAK199VH.1b/hMAK199VL.2b) VH: EVQLVQSGSELKKPGASVKVSCKASGYTFTNYGMNWVRQAPGQGLEWMGWINTYTGEPTYADDFKGRFVFSLDTSVSTAYLQISSLKAEDTAVYFCARKFLTTVVVTDYAMDYWGQGTTVTVSS VL: DIVMTQSPAFLSVTPGEKVTITCRASQDISNYLNWYQQKPDQAPKLLIYYTSRLQSGVPSRFSGSGSGTDYTFTISSLEAEDAATYYCQQGNTLPPTFGQGTKLEIK
